Data set [1] deals with BamA, E. coli, untagged (endogenous, or co-expressed from pSlyB-BamA with its native signal peptide) (E. coli, UniProt P0A940 21-810). Description: cell-based or functional assay.
Data set [2] concerns the molecule itself. Description: α-SlyB Western of semi-native PAGE of whole cell lysate, with or without 1 mM EDTA.

Numbering of substitutions follows the chain as printed. Names may count otherwise.

B1: SlyB, native (endogenous) lipoprotein of E. coli (other)
chain: CVNNDTLSGDVYTASEAKQVQNVSYGTIVNVRPVQIQGGDDSNVIGAIGGAVLGGFLGNTVGGGTGRSLATAAGAVAGGVAGQGVQSAMNKTQGVELEIRKDDGNTIMVVQKQGNTRFSPGQRVVLASNGSQVTVSPR
modifications: N-terminal Cys18 carries the lipid anchor
In the case of B1, the “cellular thermal shift assay (CETSA) on cells treated with EDTA: melting temperature of BamA in ΔslyB mutant versus WT cells” value in data set [1] was around 4 °C.

B2: SlyB^PL, SlyB mutant I65A/V69A/F73A with disrupted outer leaflet phospholipid binding site (other)
chain: B1 chain with I48A, V52A, F56A
notes: whole, on cells; Tested in whole cell lysates and membrane fractions
Take B2: the binding result in data set [2] is listed as “no binding”.

Values taken from patent US20260115279A1 (VIB VZW, published 2026).
